Laboratory results reported in US12065466B2, “Methods and compositions for protein sequencing” (Quantum-Si Incorporated, priority 2020, dated 2024).

B1: PS624: UBR-box domain homolog, SEQ ID NO: 184 (protein, listed as Eremothecium sinecaudum)
chain: MPKNHNHKGRNCGRSFQPGEPLYRCQECAYDDTCVLCIRCFNPLDHVNHHVSTHICSEFNDGICDCGDVEAWNVELNCKAEED
B2: PS620: UBR-box domain homolog, SEQ ID NO: 180 (protein, listed as Saccharomyces cerevisiae)
chain: MGNMHIGTACTRLCFPSETIYYCFTCSTNPLYEICELCFDKEKHVNHSYVAKVVMRPEGRICHCGDPFAFNDPSDAFKCKN
B3: PS622: UBR-box domain homolog, SEQ ID NO: 182 (protein, listed as Kluyveromyces dobzhanskii)
chain: MHSRFNHAGRICASKFKVGEPIYRCKECSFDDTCVICVNCFNPKDHVGHHVYTSICSEFNNGICDCGDTEAWNHDMHCKADEN
B4: PS543: UBR-box domain homolog, SEQ ID NO: 172 (protein, listed as Trichinella spiralis)
chain: MKCNRQLICGEPTYCCLDCACDQTCIFCHACFQSSEHKNHRYSMSTSEGSGTCDCGDKEAWKSNYYCLNHKP
B5: PS505: UBR-box domain homolog, SEQ ID NO: 133 (protein, listed as Brachionus plicatilis)
chain: MVCGRVFKSGEPSYFCRECGTDPTCVLCSICFRHSKHRYHKYVMMTSGGGGYCDCGDPEAWKSDPCCELHMP
B6: PS627: UBR-box domain homolog, SEQ ID NO: 187 (protein, listed as Zygosaccharomyces mellis)
chain: MPKYHQHSGRYCGRKFKVGEPIYRCHECGFDETCVICIHCFNAKDHETHHVSVSICSEYSTGICDCGDTEAFVNPLHCRAEEV
B7: Escherichia coli leucyl/phenylalanyl-tRNA-protein transferase: amino acid recognition protein, SEQ ID NO: 111 (protein, listed as Escherichia coli)
chain: MRLVQLSRHSIAFPSPEGALREPNGLLALGGDLSPARLLMAYQRGIFPWFSPGDPILWWSPDPRAVLWPESLHISRSMKRFHKRSPYRVTMNYAFGQVIEGCASDREEGTWITRGVVEAYHRLHELGHAHSIEVWREDELVGGMYGVAQGTLFCGESMFSRMENASKTALLVFCEEFIGHGGKLIDCQVLNDHTASLGACEIPRRDYLNYLNQMRLGRLPNNFWVPRCLFSPQELE
B8: PS618: UBR-box domain homolog, SEQ ID NO: 178 (protein, listed as Zygosaccharomyces bailii)
chain: MNASHKGAMCSKQCYPTETVFYCFTCTTNPLYEICESCFDEEKHRGHLYTAKVVVRPEGRVCHCGDPFVFKEPRFAFLCKN
B9: PS628: UBR-box domain homolog, SEQ ID NO: 188 (protein)
chain: MSHRAYHKNSPCGRIFRKGEPIHRCLTCGFDDTCALCSHCFQPEYHEGHKVHIGICQRENGGVCDCGDPEAWTQELFCPYAVD
modifications: Candida albicans
B10: PS615: UBR-box domain homolog, SEQ ID NO: 175 (protein, listed as Kluyveromyces marxianus)
chain: MVNEHRGSQCSKQCHGTETVYYCFDCTKNPLYEICEECFDETQHMGHRYTSRVVTRPEGKVCHCGDISGYNNPEKAFQCKI
B11: PS616: UBR-box domain homolog, SEQ ID NO: 176 (protein, listed as Kluyveromyces lactis)
chain: MHNDHRGSQCSKQCHGTETVYYCFDCTKNPLYEICEDCFDESQHIGHRYTSRVVTRPEGKVCHCGDISSYNDPKKAFQCRI
B12: PS544: UBR-box domain homolog, SEQ ID NO: 173 (protein, listed as Homo sapiens)
chain: MGPLGSLCGRVFKSGETTYSCRDCAIDPTCVLCMDCFQDSVHKNHRYKMHTSTGGGFCDCGDTEAWKTGPFCVNHEP
B13: PS617: UBR-box domain homolog, SEQ ID NO: 177 (protein, listed as Eremothecium sinecaudum)
chain: MPKEHRGTSCNKHCQPTETVYYCFDCTKNPLYEICEECFDADKHLGHRWTSKVVSRPEGKICHCGDPSGLTDPENGYECKN
B14: PS626: UBR-box domain homolog, SEQ ID NO: 186 (protein, listed as Zygosaccharomyces parabailii)
chain: MYHVYKHSGRNCGRKFKVGEPIYRCHECGYDETCVLCIHCFNPKDHDSHHVYIDICSEFSTGICDCGDTEAFVNPLHCKAEED
B15: Homo sapiens UBR2: SEQ ID NO: 174 (protein, listed as Homo sapiens)
chain: MGPLGSLCGRVFKVGEPTYSCRDCAVDPTCVLCMECFLGSIHRDHRYRMTTSGGGGFCDCGDTEAWKEGPYCQKHE
B16: H. sapiens Fyn SH2 domain: SEQ ID NO: 116 (protein, listed as Homo sapiens)
chain: MGAMDSIQAEEWYFGKLGRKDAERQLLSFGNPRGTFLIRESETTKGAYSLSIRDWDDMKGDHVKHYKIRKLDNGGYYITTRAQFETLQQLVQHYSERAAGLSSRLVVPSHK
B17: PS535: UBR-box domain homolog, SEQ ID NO: 163 (protein, listed as Mus musculus)
chain: MLCGRVFKVGEPTYSCRDCAVDPTCVLCMECFLGSIHRDHRYRMTTSGGGGFCDCGDTEAWKEGPYCQKHKL
B18: PS623: UBR-box domain homolog, SEQ ID NO: 183 (protein, listed as Kazachstania naganishii)
chain: MSKQFRHKGRNCGRKFRLGEPLYRCQECGYDDTCVLCINCFNPKDHEGHHIYTDICNDFTSGICDCGDEEAWLSPLHCKAEED
B19: PS538: UBR-box domain homolog, SEQ ID NO: 166 (protein, listed as Saccharomyces cerevisiae)
chain: MGDVHKHTGRNCGRKFKIGEPLYRCHECGCDDTCVLCIHCFNPKDHVNHHVCTDICTEFTSGICDCGDEEAWNSPLHCKAEEQ
B20: PS625: UBR-box domain homolog, SEQ ID NO: 185 (protein, listed as Saccharomyces eubayanus)
chain: MGDVHKHTGRNCGRKFKIGEPLYRCHECGCDDTCVLCIHCFNPKDHINHHVCTDICSEFTSGICDCGDEEAWNSSLHCKAEEQ
B21: PS619: UBR-box domain homolog, SEQ ID NO: 179 (protein, listed as Vanderwaltozyma polyspora)
chain: MENLHIGSCCNRQCYPTQTVYYCLTCTINPLYEICELCFDEDKHVGHTYISKSVIRPEGKVCHCGNPNVFKKPEFAFNCKN
B22: PS629: UBR-box domain homolog, SEQ ID NO: 189 (protein, listed as Pichia pastoris)
chain: MCPNYKHHGRPCARQFKQGEPIYRCYECGFDETCVMCMHCFNREQHRDHEVSISIASSSNDGICDCGDPQAWNIELHCQSELD
B23: PS542: UBR-box domain homolog, SEQ ID NO: 171 (protein, listed as Trichuris suis)
chain: MRCNHVFANGEATYSCRGCAADPTCVLCASCFELSAHKEHKYMITTSSGTGYCDCGDPEAWKADPFCQQHQP
B24: PS522: UBR-box domain homolog, SEQ ID NO: 150 (protein, listed as Vombatus ursinus)
chain: MLCGKVFKSGETTYSCRDCAIDPTCVLCMNCFQSSVHKNHRYKMHTSTGGGFCDCGDTEAWKTGPFCTIHEP

What was measured:
[1] = tested on: amino acid at a terminal position of a polypeptide; conditions: Table 2; amino acid identity at a terminal position (phosphotyrosine also internal); inferred from literature and/or demonstrated by the inventors; cited from earlier work
[2] = tested on: immobilized peptides containing N-terminal R, K or H; test: Biolayer interferometry of UBR-box domain homologs; format: binding; conditions: for binding affinity to N-terminal R with different penultimate amino acids: 14 polypeptides containing N-terminal R; for binding range for RX dipeptides / dissociation rates with R dipeptides: 14 peptides RXGGGDDDFFK (SEQ ID NO: 241); for binding to RA/KA/HA peptides (single-point screening): 30° C., XAKLDEESILKQK
Protocol: The amino acid binding properties of UBR-box domain homologs were evaluated by biolayer interferometry. Peptides containing an N-terminal arginine (R), followed by different amino acids in the penultimate position, were immobilized on a biolayer interferometry sensor surface, allowed to bind to UBR-box protein, and incubated in buffer to allow the UBR-box molecules to dissociate. […] FIG. 32C is a heatmap showing results measured for 24 UBR-box homologs against 14 polypeptides containing N-terminal R followed by different amino acids in the penultimate position.
UBR proteins bind to the basic N-terminal residues R, K, and H as part of the conserved N-end rule pathway. To identify high-affinity UBR proteins with properties favorable for use in sequencing, a diverse panel of uncharacterized UBR-box domain homologs from 44 species (PS501-PS544) was designed. UBR-box domain homologs were expressed, purified, and evaluated for binding to N-terminal amino acids by biolayer interferometry. Measurements were carried out at 30° C. for each protein for R, K and H binding. The amino-acid binding profile of each new homolog was first evaluated by biolayer interferometry using a single-point screening assay. All peptides in this screen contained a penultimate alanine (A) and consisted of the sequence XAKLDEESILKQK (SEQ ID NO: 238), where X is R, K, or H.
To evaluate the effect of penultimate amino acids on arginine binding, UBR box-domain homologs were evaluated for binding to 14 different peptides with N-terminal RX (peptide sequence: RXGGGDDDFFK (SEQ ID NO: 241)). The selected RX dipeptides are the 14 most frequently found in the human proteome.

Row | Molecule | Binding Pref. [1] | further results
1 | B1 | K, R, H | –
2 | B2 | K, R, H | –
3 | B3 | K, R, H | –
4 | B4 | K, R, H | –
5 | B5 | K, R, H | binding affinity to N-terminal R with different penultimate amino acids [2]: high binding affinity to R in the presence of a wide range of penultimate amino acids
6 | B6 | K, R, H | –
7 | B7 | K, R | –
8 | B8 | K, R, H | –
9 | B9 | K, R, H | –
10 | B10 | K, R, H | –
11 | B11 | K, R, H | –
12 | B12 | K, R, H | –
13 | B13 | K, R, H | –
14 | B14 | K, R, H | –
15 | B15 | K, R, H | –
16 | B16 | phospho-Y | –
17 | B17 | K, R, H | binding range for RX dipeptides [2]: extensive binding range for RX dipeptides; dissociation rates with R dipeptides [2]: faster dissociation rates; binding affinity to N-terminal R with different penultimate amino acids [2]: high binding affinity to R in the presence of a wide range of penultimate amino acids; binding to RA/KA/HA peptides (single-point screening) [2]: favorable binding trajectories to RA and KA peptides with notably high response for RA peptide
18 | B18 | K, R, H | –
19 | B19 | K, R, H | binding to RA/KA/HA peptides (single-point screening) [2]: favorable binding trajectories to RA and KA peptides with notably high response for RA peptide
20 | B20 | K, R, H | –
21 | B21 | K, R, H | –
22 | B22 | K, R, H | –
23 | B23 | K, R, H | –
24 | B24 | K, R, H | binding range for RX dipeptides [2]: extensive binding range for RX dipeptides; dissociation rates with R dipeptides [2]: faster dissociation rates; binding affinity to N-terminal R with different penultimate amino acids [2]: high binding affinity to R in the presence of a wide range of penultimate amino acids; binding to RA/KA/HA peptides (single-point screening) [2]: favorable binding trajectories to RA and KA peptides with notably high response for RA peptide
